Usually Kd stands for the equilibrium constant for the complex coming apart.

The chains are these.
B1: GIPC MIR, C-terminal SNAP-tagged (domain or fragment, human, UniProt O14908 261-333, looked up)
chain: EEKAIEKVDDLLESYMGIRDTELAATMVELGKDKRNPDELAEALDERLGDFAFPDEFVFDVWGAIGDAKVGRY
modifications: benzylguanine-labeled DNA oligo on the SNAP tag (DNA origami scaffold assay)
B2: Myosin VI FL-SNAP (natural protein, human, UniProt Q9UM54 1-1294, looked up)
chain: MEDGKPVWAPHPTDGFQMGNIVDIGPDSLTIEPLNQKGKTFLALINQVFPAEEDSKKDVEDNCSLMYLNEATLLHNIKVRYSKDRIYTYVANILIAVNPYFDIPKIYSSEAIKSYQGKSLGTRPPHVFAIADKAFRDMKVLKMSQSIIVSGESGAGKTENTKFVLRYLTESYGTGQDIDDRIVEANPLLEAFGNAKTVRNNNSSRFGKFVEIHFNEKSSVVGGFVSHYLLEKSRICVQGKEERNYHIFYRLCAGASEDIREKLHLSSPDNFRYLNRGCTRYFANKETDKQILQNRKSPEYLKAGSMKDPLLDDHGDFIRMCTAMKKIGLDDEEKLDLFRVVAGVLHLGNIDFEEAGSTSGGCNLKNKSAQSLEYCAELLGLDQDDLRVSLTTRVMLTTAGGTKGTVIKVPLKVEQANNARDALAKTVYSHLFDHVVNRVNQCFPFETSSYFIGVLDIAGFEYFEHNSFEQFCINYCNEKLQQFFNERILKEEQELYQKEGLGVNEVHYVDNQDCIDLIEAKLVGILDILDEENRLPQPSDQHFTSAVHQKHKDHFRLTIPRKSKLAVHRNIRDDEGFIIRHFAGAVCYETTQFVEKNNDALHMSLESLICESRDKFIRELFESSTNNNKDTKQKAGKLSFISVGNKFKTQLNLLLDKLRSTGASFIRCIKPNLKMTSHHFEGAQILSQLQCSGMVSVLDLMQGGYPSRASFHELYNMYKKYMPDKLARLDPRLFCKALFKALGLNENDYKFGLTKVFFRPGKFAEFDQIMKSDPDHLAELVKRVNHWLTCSRWKKVQWCSLSVIKLKNKIKYRAEACIKMQKTIRMWLCKRRHKPRIDGLVKVGTLKKRLDKFNEVVSVLKDGKPEMNKQIKNLEISIDTLMAKIKSTMMTQEQIQKEYDALVKSSEELLSALQKKKQQEEEAERLRRIQEEMEKERKRREEDEKRRRKEEEERRMKLEMEAKRKQEEEERKKREDDEKRIQAEVEAQLARQKEEESQQQAVLEQERRDRELALRIAQSEAELISDEAQADLALRRSLDSYPVSKNDGTRPKMTPEQMAKEMSEFLSRGPAVLATKAAAGTKKYDLSKWKYAELRDTINTSCDIELLAACREEFHRRLKVYHAWKSKNKKRNTETEQRAPKSVTDYDFAPFLNNSPQQNPAAQIPARQREIEMNRQQRFFRIPFIRPADQYKDPQSKKKGWWYAHFDGPWIARQMELHPDKPPILLVAGKDDMEMCELNLEETGLTRKRGAEILPRQFEEIWERCGGIQYLQNAIESRQARPTYATAMLQSLLK
modifications: Cy3-conjugated (single-molecule TIRF assay); benzylguanine-labeled DNA oligo on the SNAP tag (nanotube and origami assays)

In assay [1] the target is mCerulean (mCer)-tagged myosin VI CBD (human) (UniProt Q9UM54). Kind of assay: FRET or BRET; bimolecular FRET in solution; CBD-mCer held constant at 30 nM, increasing GIPC MIR–mCit titrated; excitation 430 nm; ΔFRET fit to a hyperbolic dose–response; three protein preparations. In general terms: In BRET a luciferase serves as donor, and the signal depends on an acceptor being close.

In the assay “Myosin VI FL-SNAP” the target is B2. Kind of assay: cell-based or functional assay.
In assay [2] the target is B1. Kind of assay: cell-based or functional assay.

“mCitrine (mCit)-tagged GIPC MIR (from UniProt O14908 261-333) (domain or fragment)”: the dissociation constant (Kd) in assay [1] was 120 nM. Consider B1, for which the “actin gliding speed in the DNA nanotube assay (Myosin VI FL-SNAP patterned at 14 or 28 nm spacing), with 2 μM GIPC MIR against without” value with Myosin VI FL-SNAP stood at 2.5 fold. With B2, in assay [2], the “speed of DNA origami scaffolds on single actin filaments, myosin VI recruited through GIPC MIR against direct attachment” value is 2.3 fold.
